Peptide text beside a SMILES is read from it.
B1: synthetic peptide Y1 (peptide)
peptide: CFAGTPSILMLA
notes: dodecapeptide Y1 from phage display, synthesized; source: synthetic peptide (Fmoc solid phase, Synpeptide Co., HPLC purified)
B2: synthetic peptide C3 (peptide)
peptide: WSPSALLPSSVT
notes: dodecapeptide C3 from phage display, synthesized; source: synthetic peptide (Fmoc solid phase, Synpeptide Co., HPLC purified)
B3: synthetic peptide Y3 (peptide)
peptide: GMCSFVDVANCP
notes: dodecapeptide Y3 from phage display, synthesized; source: synthetic peptide (Fmoc solid phase, Synpeptide Co., HPLC purified)
B4: synthetic peptide S1 (peptide)
peptide: TLSWHQNLRLME
notes: dodecapeptide S1 from phage display, synthesized; source: synthetic peptide (Fmoc solid phase, Synpeptide Co., HPLC purified)
B5: synthetic peptide S3 (peptide)
peptide: IQCFSLAPYVGC
notes: dodecapeptide S3 from phage display, synthesized; source: synthetic peptide (Fmoc solid phase, Synpeptide Co., HPLC purified)
B6: synthetic peptide S2 (peptide)
peptide: AYSRDVVLNMWR
notes: dodecapeptide S2 from phage display, synthesized; source: synthetic peptide (Fmoc solid phase, Synpeptide Co., HPLC purified)
B7: synthetic peptide C4 (peptide)
peptide: HHRLTRSMQLMM
notes: dodecapeptide C4 from phage display, synthesized; source: synthetic peptide (Fmoc solid phase, Synpeptide Co., HPLC purified)
B8: synthetic peptide Y10 (peptide)
peptide: QSYFNACWSCNH
notes: source: synthetic peptide (Fmoc solid phase, Synpeptide Co., HPLC purified)
B9: synthetic peptide C2 (peptide)
peptide: YGVSALSSYVSC
notes: dodecapeptide C2 from phage display, synthesized; source: synthetic peptide (Fmoc solid phase, Synpeptide Co., HPLC purified)

Key:
[1] = molecular target: CYFRA 21-1; assay: BLI binding affinity of synthesized peptides to immobilized CYFRA 21-1; details: Octet RH96, CYFRA 21-1 immobilized on AR2G biosensors by amine coupling, room temperature, association 90 s, dissociation 180 s, KD = kd/ka
Method: The binding affinities of the peptides to their respective markers were assessed using an Octet RH96 instrument (Sartorius AG, Goettingen, Germany) with software version 12.2.1.18. Markers CEA, SCCAg, and CYFRA 21-1 were immobilized on amine reactive second-generation biosensors (AR2G, Sartorius AG) via amine coupling, with ethanolamine used to quench unreacted sites. Peptides were prepared in a range of concentrations. Experiments were conducted at room temperature and involved three phases: baseline (60 s), association (90 s), and dissociation (180 s). Data analysis was performed using Octet Data Analysis software version 11.0 to calculate the equilibrium dissociation constant (KD) as dissociation constant (kd)/association constant (ka).

[2] = molecular target: T1, cytokeratin fragment 19 (Limits are not printed. The conventional CYFRA 21-1 soluble C-terminal fragment of KRT19 (after caspase-3 cleavage at Asp238) is used; from general knowledge, not from the paper or the candidate featu); assay: BLI; Octet RH96; CEA, SCCAg or CYFRA 21-1 immobilised on AR2G biosensors by amine coupling; peptides in a range of concentrations; room temperature; association 90 s, dissociation 180 s; KD as kd/ka; details: both partners purified
T1 chain: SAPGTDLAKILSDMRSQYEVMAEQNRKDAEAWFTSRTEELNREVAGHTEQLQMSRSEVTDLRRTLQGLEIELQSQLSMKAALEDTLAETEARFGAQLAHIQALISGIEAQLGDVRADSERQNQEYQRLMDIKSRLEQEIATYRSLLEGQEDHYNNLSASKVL

[3] = molecular target: T2, carcinoembryonic antigen (UniProt P06731 35-685); assay: as above; details: both partners purified
T2 construct: carcinoembryonic antigen (CEA), serum tumor marker; also called CEA; CAE
T2 sequence (looked up): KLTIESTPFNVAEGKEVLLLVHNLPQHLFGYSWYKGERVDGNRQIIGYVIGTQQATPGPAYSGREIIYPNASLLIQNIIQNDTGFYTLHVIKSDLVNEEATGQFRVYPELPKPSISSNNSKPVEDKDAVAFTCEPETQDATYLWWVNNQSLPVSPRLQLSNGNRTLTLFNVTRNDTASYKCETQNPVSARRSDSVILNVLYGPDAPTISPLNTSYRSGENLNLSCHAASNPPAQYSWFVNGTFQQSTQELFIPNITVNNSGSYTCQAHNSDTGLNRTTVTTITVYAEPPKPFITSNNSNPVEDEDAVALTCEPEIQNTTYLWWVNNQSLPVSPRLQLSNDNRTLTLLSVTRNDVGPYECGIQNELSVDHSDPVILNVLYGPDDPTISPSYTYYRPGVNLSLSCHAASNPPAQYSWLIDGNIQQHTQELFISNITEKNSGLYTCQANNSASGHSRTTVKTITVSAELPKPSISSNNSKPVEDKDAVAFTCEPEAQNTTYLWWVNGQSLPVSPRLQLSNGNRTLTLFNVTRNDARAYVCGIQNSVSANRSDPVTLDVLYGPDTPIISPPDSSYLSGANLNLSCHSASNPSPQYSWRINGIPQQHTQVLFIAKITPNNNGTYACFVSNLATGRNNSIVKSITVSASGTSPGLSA

[4] = molecular target: squamous cell carcinoma antigen (UniProt P29508 1-390); assay: as above; details: both partners purified
Sequence of squamous cell carcinoma antigen (P29508 whole entry): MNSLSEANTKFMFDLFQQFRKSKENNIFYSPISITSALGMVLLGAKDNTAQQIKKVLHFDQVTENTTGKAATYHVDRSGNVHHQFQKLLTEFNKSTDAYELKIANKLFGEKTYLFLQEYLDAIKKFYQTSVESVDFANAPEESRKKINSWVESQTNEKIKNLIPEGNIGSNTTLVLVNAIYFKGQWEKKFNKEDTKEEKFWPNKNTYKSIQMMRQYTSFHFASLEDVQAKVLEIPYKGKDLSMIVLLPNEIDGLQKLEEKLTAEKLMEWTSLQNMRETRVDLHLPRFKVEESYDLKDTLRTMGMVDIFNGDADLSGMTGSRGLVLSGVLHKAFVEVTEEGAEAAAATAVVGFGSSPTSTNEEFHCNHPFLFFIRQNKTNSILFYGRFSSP

| Molecule | Kd [2] | Kd [3] | Kd [4] | also measured |
| --- | --- | --- | --- | --- |
| CSCC[C@H](NC(=O)CN)C(=O)N[C@@H](CS)C(=O)N[C@@H](CO)C(=O)N[C@@H](Cc1ccccc1)C(=O)N[C@H](C(=O)N[C@@H](CC(=O)O)C(=O)N[C@H](C(=O)N[C@@H](C)C(=O)N[C@@H](CC(N)=O)C(=O)N[C@@H](CS)C(=O)N1CCC[C@H]1C(=O)O)C(C)C)C(C)C [Peptide Y3] (H-GMCSFVDVANCP-OH) |  |  |  | Kd [1]: 14 nM |
| B1 | 83 nM |  |  |  |
| B2 |  | 460 nM |  |  |
| B3 | 14 nM |  |  |  |
| B4 |  |  | 28 nM |  |
| B5 |  |  | 2900 nM |  |
| B6 |  |  | 6.1 nM |  |
| B7 |  | 16 nM |  |  |
| B8 | 1000 nM |  |  |  |
| B9 |  | 870 nM |  |  |

Source: PMC11679068, “Affinity Peptide-Based Circularly Permuted Fluorescent Protein Biosensors for Non-Small Cell Lung Cancer Diagnosis” (Sensors (Basel, Switzerland), 2024)
